# Results: the nanobody polyreactivity screen of Harvey et al. (2022)
# Experiment: yeast display, Sf9 membrane polyspecificity reagent, FACS + sequencing; frameworks hold sequencing errors
# Outline: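 Polyreactivity labels are assigned by the sorting gate from which each nanobody was recovered. The gates were low and high (top ~1%), set on anti-HA fluorescence for expression and streptavidin fluorescence for reagent binding. Before sorting, galactose-induced (36–48 hours) yeast display cells were stained for 1 hour at 4 °C with 10% biotinylated, detergent-solubilized Sf9 membrane reagent.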
row,Sequence,polyreactivity (PSR sort gate)
1,QVQLVESGGGLVQAGGSLRLSCAASGRIFTINAMGWYRQAPGKERELVAAISWSGVRTYYADSVKGRFTISRDNAKNTVYLQMNSLKPEDTAVYYCAKRRQYQRSYNYWGQGTQVTVSS,low polyreactivity
2,QVQLVESGGGLVQAGGSLRLSCAASGRIFTINAMGWYRQAPGKERELVAVITRGGSTKYADSVKGRFTISRDNAKNTVYLQMNSLKPEDTAVYYCAARVRAGHGKNGYWGQGTQVTVSS,high polyreactivity
3,QVQLVESGGGLVQAGGSLRLSCAASGRIFTKYAMGWYRQAPGKDRELVAAISYRGGSTYYADSVKGRFTISRDNAQNTVYLQMNSLKPEDTAVYYCATSWTPNYFVTSDYWGQGTQVTVSS,high polyreactivity
4,QVQLVESGGGLVQAGGSLRLSCAASGRIFTKYAMGWYRQAPGKERELVATITRNGGSTYYADSVKGRFTISRDNAKNTVYLQMNSLKPEDTAVYYCAADKRYKLDYWGQGTQVTVSS,high polyreactivity
5,QVQLVESGGGLVQAGGSLRLSCAASGRIFTLYAMGWYRQAPGKERELVAGISRSGGSTYYADSVKGRFTISRDNAKNTVYLQMNSLKPEDTAVYYCNAVPIYYAWRRNKPFDYWGQGTQVTVSS,low polyreactivity
6,QVQLVESGGGLVQAGGSLRLSCAASGRIFTNNAMGWYRPAPGKERELVAAISRSGGRTYYADSVKGRFTISRDNAKNTVYLQMNSLKPEDTAVYYCAAVHLYYGYNSPFTMDYWGQGTQVTVSS,high polyreactivity
7,QVQLVESGGGLVQAGGSLRLSCAASGRIFTPYAMGWYRQAPGKERELVATISRGTSTSYADSVKGRFTISRDNAKNTVYLQMNSLKPEDTAVYYCAALGPRTTFRYTSYYYWGQGTQVTVSS,high polyreactivity
8,QVQLVESGGGLVQAGGSLRLSCAASGRIFTPYAMGWYRQAPGKERELVAVIRDGSTYYADSVKGRFTISRDNAKNTVYIQMNSLKPEDTAVYYCRYDIWVWWSGAYDYWGQGTQVTVSS,low polyreactivity
9,QVQLVESGGGLVQAGGSLRLSCAASGRIFTQYAMGWYRQAPGKERELVAAINASDGSTYYADSVKGRFTISRDNAKNTVYLQMNSLKPEDTAVYYCAGYAYNAIEYGYWGQGTQVTVSS,low polyreactivity
10,QVQLVESGGGLVQAGGSLRLSCAASGRIFTRNAMGWYRQAPGKEREFVAAISSSGSSTYFADSVKGRFTISRDNAKNTVYLQMNSLKPEDTAVYYCAARVTSPVSHDRVDYWGQGTQVTVSS,high polyreactivity
11,QVQLVESGGGLVQAGGSLRLSCAASGRIFTRNAMGWYRQAPGKEREFVAAISWSGGSTYYADSVKGRFTISRDNAKNTFYLQMNSLKPEDTAVYFCAAKNSGGYVSWYDYWGQGTQVTVSS,low polyreactivity
12,QVQLVESGGGLVQAGGSLRLSCAASGRIFTRNAMGWYRQAPGKERELVATISAGGGRTSYADSVKGRFTISRDNAKNTVELQMNSLKPEDTAVYYCAARGQVGYYWGQGTQVTVSS,high polyreactivity
13,QVQLVESGGGLVQAGGSLRLSCAASGRIFTRNAMGWYRQAPGKERELVATISAGGGRTSYADSVKGRFTISRDNAKNTVYLQMNSLKPEDTAVYYCAARGQVGYYWGQGTQVTVSS,high polyreactivity
14,QVQLVESGGGLVQAGGSLRLSCAASGRIFTRNGMGWYRQAPGKERELVAASTRGGRTNYADSVKGRFTISRDNAKNTVYLQMNSLKPEDTAVYYCAAGFPWSYYGSYDYWGQGTQVTVSS,high polyreactivity
15,QVQLVESGGGLVQAGGSLRLSCAASGRIFTRNVMGWYRQAPGKERELVARINSGGRTYYADSVKGRFTISRDNAKNTVYLQMNSLKPEDTAVYYCAVPFYWYSPMDSWGQGTQVTVSS,high polyreactivity
16,QVQLVESGGGLVQAGGSLRLSCAASGRIFTRYAMGWNRQAPGKETELGAAITASGGRTYYADSVKGRFTISRDNAKNTVYLQMNSLKPEDTAVYYCAATYHRYYETQDSYDYWGQGTQLTVSS,high polyreactivity
17,QVQLVESGGGLVQAGGSLRLSCAASGRIFTRYAMGWYRQAPGKERELVAAITYNGGSTYYADSVKGRFTISRDNAKNTVYLQMNSLKPEDTAVYYCNAVYLSWFGLYAGFDYWGQGTQVTVSS,high polyreactivity
18,QVQLVESGGGLVQAGGSLRLSCAASGRIFTRYAMGWYRQAPGKERELVATITRRGGSTYYADSVKGRFTISRDNAKNTVYLQMNSLKPEDTAVYYCAKDRTTSSFGEYDYWGQGTQVTVSS,high polyreactivity
19,QVQLVESGGGLVQAGGSLRLSCAASGRIFTRYAMGWYRQAPGKERELVSAISSGGSTYYADSVKGRFTISRDNAKNTVYLQMNSLKPEDTAVYYCAAKTRPQRTYSTRQQMNYWGQGTQVTVSS,high polyreactivity
20,QVQLVESGGGLVQAGGSLRLSCAASGRIFTSYTMGWYRQAPGKERELVAAISASGASTYYADSVKGRFTISRDNAKNTVYLQMNSLKPEDSAVYYCATVRPRERRGYWGQGTQVTVSS,high polyreactivity
21,QVQLVESGGGLVQAGGSLRLSCAASGRIFTSYVMGWYRQAPGKERELVAAITSSGGSTYYADSVKGRFTISRDNAKNTVYLQMNSLKPEDTAVYYCAAATRGSGRRYDYWGQGTQVTVSS,high polyreactivity
22,QVQLVESGGGLVQAGGSLRLSCAASGRIFTTNTMGWYRQAPGKERELVARITYSGTSTYYADSVKGRFTISRDNAKNTVYLQMNSLKPEDTAVYYCAAKVWWRKYLLQDYYYWGQGTQVTVSS,high polyreactivity

row,Sequence,polyreactivity (PSR sort gate)
1,QVQLVESGGGLVQAGGSLRLSCAASGRIFTTYAMGWYRQAPGKERELVARIRWRGGSTYYADSVKGRFTISRDNAKNTVYLKMNSLKPEDTAVYYCNADKYYGFDYWGQGTQVTVSS,high polyreactivity
2,QVQLVESGGGLVQAGGSLRLSCAASGRIFTTYVMGWYRQAPGKERELVAAISARGSTYYADSVKGRFTISRDNAKNTVYLQMNSLKPEDTAVYYCAAGHRLPVYYGYPRATYNYWGQGTQVTVSS,low polyreactivity
3,QVQLVESGGGLVQAGGSLRLSCAASGRIFTWYAMGWYRQAPGKERELVAAINASGGGTYADSVKGRFTISRDNAKNTVYLQMNSLKPEDTAVYYCNADIRAFYLYYSEGFSWRLDYWGQGTQVTVSS,high polyreactivity
4,QVQLVESGGGLVQAGGSLRLSCAASGRIFTWYAMGWYRQAPGKERELVATISTGGSTNYADSVKGRFTISRDNAKNTVYLQMNSLKPEDTAVYYCAAKWPWSPNAFYYWGQGTQVTVSS,high polyreactivity
5,QVQLVESGGGLVQAGGSLRLSCAASGRIFTYNAMGWSRQAPGKERELVAANTSSGGSTYYADSVKGRFTISRDYAKNTVYLQMNSLKPEDTAVYYCATVRRGRDYWGQGTQVTVSS,high polyreactivity
6,QVQLVESGGGLVQAGGSLRLSCAASGRIFTYNPMGWYRQAPGKERELVAAISTRGGTTRYADSVKGRFTISRDNAKNTVYLQMNSLKPEDTAVYSCNAVSRGSRWDGLVRLDYWGQGTQVTVSS,high polyreactivity
7,QVQLVESGGGLVQAGGSLRLSCAASGRIFTYNPMGWYRQAPGKERELVAVISRRGGSTYYADSVKGRFTISRDNAKNTVYLQMNSLKPEDTAVYYCAADLPSYPYEYWGQGTQVTVSS,low polyreactivity
8,QVQLVESGGGLVQAGGSLRLSCAASGRIFTYYAMGWYIQAPGKERELVASITGSGGSTDYADSVKGRFTISRDNAKNTVYLQRNSLKPEDTAVYYCAADGLSYGPLYNYDYWGQGTQVTVSS,low polyreactivity
9,QVQLVESGGGLVQAGGSLRLSCAASGRIFTYYAMGWYRQAPGKERELVAAISSGGSTYYADSGKGRFTISRDNAKNTVSLQMNSLKPEDTAVYYCAADTIYYFPYDYWGQGTQVTVSS,high polyreactivity
10,QVQLVESGGGLVQAGGSLRLSCAASGRIFTYYAMGWYRQAPGKERELVAAITSGGGSTSYADSVKGRFTISRDNAKNTVYLQMNSLKPEDTAVYYCATRRPFYGHNTYYWYNYWGQGTQVTVSS,high polyreactivity
11,QVQLVESGGGLVQAGGSLRLSCAASGRIFTYYGMGWYRQAPGKERELVAAISWSGGSTYYADSVKGRFTISRDNAKNTVYLQMNSLKPVDTAVYYCNAASRYGGDYWGQGTQVTVSS,high polyreactivity
12,QVQLVESGGGLVQAGGSLRLSCAASGRIFVDNAMGWYRQAPGKERELVAAINYSGGGTYYADSVKGRFTISRDNAKNTVYLQMNSLKPEDTAVYYCAADSDSFWGVPSYYWGQGTQVTVSS,low polyreactivity
13,QVQLVESGGGLVQAGGSLRLSCAASGRIFVFYAMGWYRQAPGKERELVAAITASSTRTYYADSVKGRFTISRDNAKNTFYLQMNSLKPEDTAVYYCAADRYYWGQGTQVTVSS,low polyreactivity
14,QVQLVESGGGLVQAGGSLRLSCAASGRIFVGNAKGWYRQAPRKERELVAAIDESGGSTYYADSVKGRFTISRDNAKTTVYLQMNSLKPEDTAGYYCNAVWFWLRYYKYEYWGQGTQVTVSS,high polyreactivity
15,QVQLVESGGGLVQAGGSLRLSCAASGRIFVGNAMGWYRQAPGKERELVAAITRSGSRTYYADSVKGRFTISRDNAKNTVYLQMISLKPEDTAVYYCNAPIRTWPGYDYWGQGTQVTVSS,high polyreactivity
16,QVQLVESGGGLVQAGGSLRLSCAASGRIFVGNTMGWYRQAPGKERELVAAITRSGGSTYYADSAKGRFTISRDNAKNTVYLQMNSLKPEDTAVYYCAARRRGDYWGQGTQVTVSS,high polyreactivity
17,QVQLVESGGGLVQAGGSLRLSCAASGRIFVGYAIGWYRQAPGKERELVAAINRSGSSTYYADSVKGRYTISRDNAKNTFYLQMNSLKPEDTAVYYCNARSGNRYGPRYDYWGQGTQVTVSS,high polyreactivity
18,QVQLVESGGGLVQAGGSLRLSCAASGRIFVGYAMGWYIQAPGKERELVAAINRSGSSTYYADSVKGRFTISRDNAKNTVYLQMNRLKPEDTAVYYCNARSGNRYGPRYDYWGQGTQVTVSS,high polyreactivity
19,QVQLVESGGGLVQAGGSLRLSCAASGRIFVGYAMGWYRQAPGKERELVAAISSDGGSTYYADSVKGRFTISRDNAKNTVYLQMNSLKPEDTAVYYCNAYYGRFPYYADDYWGQGTQVTVSS,low polyreactivity
20,QVQLVESGGGLVQAGGSLRLSCAASGRIFVGYYTMGWYRQAPGKERELVASITWGGGRTYYADSVKGRFTISRDNAKNTVYLQMNSLKPEDTAVYYCAAGYPANYYYLGQGTQVTVSS,high polyreactivity
21,QVQLVESGGGLVQAGGSLRLSCAASGRIFVHNAMGWYRQAPRKERELVAAISWSGGSTYYADSVKGRFTISRDNAKNTVYLQMNSLKPEDTAVYYCNALDPLYFRYDYWGQGTQVTVSS,low polyreactivity
